What is called Kd is the free concentration of one partner at which half of the binding sites on the other are occupied at equilibrium, for simple one-to-one binding.

One test deals with human YKL-40 WT (human). The test can be described thus: BLI. A general note: BLI is a label-free optical method that tracks binding on a fibre tip over time.
The target of the next test is YKL-40 A134 (human). Description: BLI.
A further test concerns the target YKL-40 A194 (human). Description: BLI.
The next test deals with YKL-40 A93 (human). Description: BLI.
Another test concerns the target YKL-40 R301 (human). Description: BLI.
Another test addresses YKL-40 A302 (human). The test can be described thus: BLI.
For another test, the target named is YKL-40 A142 (human). The test can be described thus: BLI.
Another test deals with YKL-40 A135 (human). Description: BLI.
Sequence of YKL-40 A135 (human) (chain, as listed by the source): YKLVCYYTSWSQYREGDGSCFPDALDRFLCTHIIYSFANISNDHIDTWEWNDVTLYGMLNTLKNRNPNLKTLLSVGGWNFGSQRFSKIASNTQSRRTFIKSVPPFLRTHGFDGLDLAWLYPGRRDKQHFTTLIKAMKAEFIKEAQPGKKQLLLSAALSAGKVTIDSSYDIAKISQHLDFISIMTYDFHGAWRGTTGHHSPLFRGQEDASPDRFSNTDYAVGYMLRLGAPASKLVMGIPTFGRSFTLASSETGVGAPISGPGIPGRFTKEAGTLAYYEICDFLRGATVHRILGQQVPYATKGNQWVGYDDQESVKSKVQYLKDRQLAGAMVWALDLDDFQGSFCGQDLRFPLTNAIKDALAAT
For the next test, the target named is YKL-40 A108 (human). Description: BLI.
Sequence of YKL-40 A108 (human) (chain, as listed by the source): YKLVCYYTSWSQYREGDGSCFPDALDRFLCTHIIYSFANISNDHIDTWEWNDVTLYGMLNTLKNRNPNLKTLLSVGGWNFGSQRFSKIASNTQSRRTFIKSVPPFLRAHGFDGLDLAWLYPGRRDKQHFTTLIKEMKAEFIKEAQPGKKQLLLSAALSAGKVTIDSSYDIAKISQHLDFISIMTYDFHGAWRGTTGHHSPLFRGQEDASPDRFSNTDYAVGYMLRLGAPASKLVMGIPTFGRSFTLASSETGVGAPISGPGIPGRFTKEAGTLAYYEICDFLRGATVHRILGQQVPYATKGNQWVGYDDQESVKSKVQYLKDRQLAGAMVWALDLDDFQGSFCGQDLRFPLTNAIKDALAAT
The next test concerns the target YKL-40 A145 (human). Description: BLI.
For another test, the target named is YKL-40 A283 (human). The test can be described thus: BLI.
Sequence of YKL-40 A283 (human) (chain, as listed by the source): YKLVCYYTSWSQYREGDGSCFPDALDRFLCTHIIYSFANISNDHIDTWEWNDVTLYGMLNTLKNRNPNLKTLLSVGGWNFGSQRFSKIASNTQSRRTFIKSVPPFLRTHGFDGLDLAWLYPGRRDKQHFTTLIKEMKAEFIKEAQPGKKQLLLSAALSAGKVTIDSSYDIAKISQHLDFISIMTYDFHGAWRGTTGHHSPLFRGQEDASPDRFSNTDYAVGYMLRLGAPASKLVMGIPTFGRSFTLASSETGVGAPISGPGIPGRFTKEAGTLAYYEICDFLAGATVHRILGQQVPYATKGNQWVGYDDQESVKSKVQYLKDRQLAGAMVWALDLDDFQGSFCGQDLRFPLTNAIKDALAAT
The next test deals with YKL-40 A141 (human). The test can be described thus: BLI.
Another test concerns the target YKL-40 A250 (human). Description: BLI.
For a further test, the target named is YKL-40 A42 (human). Description: BLI.
The next test deals with YKL-40 A175 (human). Description: BLI.
Sequence of YKL-40 A175 (human) (chain, as listed by the source): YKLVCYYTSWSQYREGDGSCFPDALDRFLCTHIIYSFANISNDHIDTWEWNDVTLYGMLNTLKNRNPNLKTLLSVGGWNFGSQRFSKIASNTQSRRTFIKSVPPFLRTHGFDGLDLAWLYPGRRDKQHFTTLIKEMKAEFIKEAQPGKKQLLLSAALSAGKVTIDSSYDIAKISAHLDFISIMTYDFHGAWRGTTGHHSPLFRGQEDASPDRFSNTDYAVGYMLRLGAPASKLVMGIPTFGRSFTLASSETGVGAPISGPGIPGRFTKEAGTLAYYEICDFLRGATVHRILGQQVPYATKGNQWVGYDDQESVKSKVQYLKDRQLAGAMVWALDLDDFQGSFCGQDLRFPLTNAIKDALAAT
In another test the target is YKL-40 A44 (human). The test can be described thus: BLI.
Sequence of YKL-40 A44 (human) (chain, as listed by the source): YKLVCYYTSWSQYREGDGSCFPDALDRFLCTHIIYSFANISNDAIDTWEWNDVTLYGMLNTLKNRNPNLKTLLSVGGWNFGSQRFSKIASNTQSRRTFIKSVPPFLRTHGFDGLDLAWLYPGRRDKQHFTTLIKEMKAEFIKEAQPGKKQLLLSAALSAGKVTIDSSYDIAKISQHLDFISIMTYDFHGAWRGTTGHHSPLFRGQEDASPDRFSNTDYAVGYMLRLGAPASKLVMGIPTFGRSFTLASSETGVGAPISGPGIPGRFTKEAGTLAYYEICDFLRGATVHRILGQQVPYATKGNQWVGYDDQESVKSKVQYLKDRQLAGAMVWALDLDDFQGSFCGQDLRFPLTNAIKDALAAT
Another test deals with YKL-40 A287 (human). The test can be described thus: BLI.
In another test the target is YKL-40 A249 (human). Description: BLI.
Sequence of YKL-40 A249 (human) (chain, as listed by the source): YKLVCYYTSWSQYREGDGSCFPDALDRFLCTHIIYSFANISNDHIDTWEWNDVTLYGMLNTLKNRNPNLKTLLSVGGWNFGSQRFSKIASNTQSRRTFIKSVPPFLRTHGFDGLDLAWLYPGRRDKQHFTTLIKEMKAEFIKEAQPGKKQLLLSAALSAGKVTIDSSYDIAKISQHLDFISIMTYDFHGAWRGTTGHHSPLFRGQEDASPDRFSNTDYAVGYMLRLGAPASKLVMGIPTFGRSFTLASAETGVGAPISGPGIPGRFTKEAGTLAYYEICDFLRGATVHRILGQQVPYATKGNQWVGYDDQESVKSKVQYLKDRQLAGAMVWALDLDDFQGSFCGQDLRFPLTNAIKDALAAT
Another test has as its target YKL-40 A146 (human). Description: BLI.
The next test has as its target YKL-40 A172 (human). The test can be described thus: BLI.
A further test concerns the target YKL-40 A256 (human). The test can be described thus: BLI.
The target of the next test is YKL-40 A149 (human). Description: BLI.
For another test, the target named is YKL-40 A300 (human). Description: BLI.
Sequence of YKL-40 A300 (human) (chain, as listed by the source): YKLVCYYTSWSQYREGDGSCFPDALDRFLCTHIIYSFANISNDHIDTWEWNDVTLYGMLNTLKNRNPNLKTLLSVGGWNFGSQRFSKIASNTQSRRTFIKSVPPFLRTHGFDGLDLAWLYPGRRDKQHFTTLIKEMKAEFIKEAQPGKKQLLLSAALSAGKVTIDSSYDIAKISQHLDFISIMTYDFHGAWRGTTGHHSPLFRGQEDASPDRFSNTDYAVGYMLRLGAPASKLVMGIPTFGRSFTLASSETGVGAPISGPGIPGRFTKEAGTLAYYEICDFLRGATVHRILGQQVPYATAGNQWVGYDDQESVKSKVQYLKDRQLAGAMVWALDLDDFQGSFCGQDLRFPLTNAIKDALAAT
In the next test the target is YKL-40 R284 (human). The test can be described thus: BLI.
A further test has as its target YKL-40 A100 (human). Description: BLI.
For another test, the target named is YKL-40 A286 (human). The test can be described thus: BLI.
Another test addresses YKL-40 A148 (human). Description: BLI.
A further test has as its target YKL-40 A192 (human). Description: BLI.
For another test, the target named is YKL-40 A92 (human). Description: BLI.
The target in the next test is YKL-40 A191 (human). Description: BLI.
The target of a further test is YKL-40 A289 (human). The test can be described thus: BLI.
Sequence of YKL-40 A289 (human) (chain, as listed by the source): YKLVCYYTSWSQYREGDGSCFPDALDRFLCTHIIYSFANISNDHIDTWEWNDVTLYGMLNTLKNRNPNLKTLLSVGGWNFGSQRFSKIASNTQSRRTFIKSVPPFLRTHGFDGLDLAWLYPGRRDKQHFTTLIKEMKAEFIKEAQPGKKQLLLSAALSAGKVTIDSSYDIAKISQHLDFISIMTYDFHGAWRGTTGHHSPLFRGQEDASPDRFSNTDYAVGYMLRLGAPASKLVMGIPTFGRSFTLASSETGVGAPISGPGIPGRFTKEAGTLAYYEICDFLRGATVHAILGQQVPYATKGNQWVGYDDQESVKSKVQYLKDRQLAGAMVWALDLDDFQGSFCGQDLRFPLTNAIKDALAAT
In the next test the target is YKL-40 A107 (human). The test can be described thus: BLI.
The next test concerns the target YKL-40 A96 (human). Description: BLI.
In another test the target is YKL-40 A104 (human). The test can be described thus: BLI.
The next test addresses YKL-40 A288 (human). Description: BLI.
A further test deals with calmodulin. The test can be described thus: other dot blot.

Sequence of YKL-40 A134 (human) (chain, as listed by the source): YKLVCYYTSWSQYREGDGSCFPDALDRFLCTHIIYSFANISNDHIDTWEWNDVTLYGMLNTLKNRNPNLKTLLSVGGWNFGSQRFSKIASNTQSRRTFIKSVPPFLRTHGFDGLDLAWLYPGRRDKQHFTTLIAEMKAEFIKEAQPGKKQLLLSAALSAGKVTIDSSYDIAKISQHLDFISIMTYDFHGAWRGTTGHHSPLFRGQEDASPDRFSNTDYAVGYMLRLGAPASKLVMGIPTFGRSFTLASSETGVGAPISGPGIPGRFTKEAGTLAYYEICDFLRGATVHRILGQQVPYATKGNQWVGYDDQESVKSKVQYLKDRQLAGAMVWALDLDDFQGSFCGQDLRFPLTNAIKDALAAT
Sequence of YKL-40 A172 (human) (chain, as listed by the source): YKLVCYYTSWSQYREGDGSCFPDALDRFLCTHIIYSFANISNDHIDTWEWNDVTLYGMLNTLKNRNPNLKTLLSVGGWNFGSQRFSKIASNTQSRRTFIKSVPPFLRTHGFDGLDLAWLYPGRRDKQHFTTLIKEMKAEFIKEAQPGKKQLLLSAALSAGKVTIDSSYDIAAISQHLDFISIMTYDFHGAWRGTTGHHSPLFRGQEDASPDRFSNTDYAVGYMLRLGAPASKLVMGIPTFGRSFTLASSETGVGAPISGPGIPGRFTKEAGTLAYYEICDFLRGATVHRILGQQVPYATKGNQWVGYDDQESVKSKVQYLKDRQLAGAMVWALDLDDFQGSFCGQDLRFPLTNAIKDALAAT
Sequence of YKL-40 R301 (human) (chain, as listed by the source): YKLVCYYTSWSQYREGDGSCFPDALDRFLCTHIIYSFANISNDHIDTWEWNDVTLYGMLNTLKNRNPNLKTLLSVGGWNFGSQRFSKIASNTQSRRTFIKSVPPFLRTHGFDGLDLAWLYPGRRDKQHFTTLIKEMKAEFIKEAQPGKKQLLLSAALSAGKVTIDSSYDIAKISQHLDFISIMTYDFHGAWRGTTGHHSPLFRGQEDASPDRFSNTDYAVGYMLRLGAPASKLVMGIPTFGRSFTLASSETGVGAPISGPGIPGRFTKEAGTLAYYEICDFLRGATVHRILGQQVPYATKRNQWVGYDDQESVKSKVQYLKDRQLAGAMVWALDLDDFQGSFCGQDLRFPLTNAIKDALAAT
Sequence of YKL-40 A100 (human) (chain, as listed by the source): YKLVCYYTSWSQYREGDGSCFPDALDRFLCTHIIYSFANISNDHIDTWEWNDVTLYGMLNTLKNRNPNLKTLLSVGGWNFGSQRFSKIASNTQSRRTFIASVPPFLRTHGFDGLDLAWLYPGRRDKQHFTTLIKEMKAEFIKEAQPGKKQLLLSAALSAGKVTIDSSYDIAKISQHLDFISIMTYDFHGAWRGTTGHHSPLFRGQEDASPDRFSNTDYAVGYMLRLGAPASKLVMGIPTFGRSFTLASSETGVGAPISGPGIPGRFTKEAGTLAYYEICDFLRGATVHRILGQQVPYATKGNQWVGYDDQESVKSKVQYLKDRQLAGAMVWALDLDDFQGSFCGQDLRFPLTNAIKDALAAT
Sequence of YKL-40 A146 (human) (chain, as listed by the source): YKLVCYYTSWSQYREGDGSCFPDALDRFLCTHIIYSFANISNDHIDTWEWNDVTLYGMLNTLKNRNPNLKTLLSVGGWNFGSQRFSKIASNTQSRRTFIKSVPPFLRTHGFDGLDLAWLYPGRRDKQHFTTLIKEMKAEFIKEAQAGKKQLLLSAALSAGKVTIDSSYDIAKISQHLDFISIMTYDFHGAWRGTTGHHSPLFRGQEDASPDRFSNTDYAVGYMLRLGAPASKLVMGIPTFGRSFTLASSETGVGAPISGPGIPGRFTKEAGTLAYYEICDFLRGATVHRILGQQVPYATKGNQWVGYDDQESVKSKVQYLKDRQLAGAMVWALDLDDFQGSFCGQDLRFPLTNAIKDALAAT

B1: H7 (antibody, V domains shown)
VH: EVQLQQSGAELVKPGASVKLSCTASGFNIKDTYMHWVKQRPEQGLEWIGRIDPANGNTIYASKFQGKATITRDTSSNTAYMQLSSLTSGDTAVYYCTRGVYYYGGSFYAMDYWGQGTSVTVSS
VL: DIQMTQSPASLSASVGETVTITCGASENIYGALNWYQRKQGKSPQLLIYGATTLADGMSSRFSGSGSGRQYSLKISSLHPDDVATYYCQNVLTTPWTFGGGTKLEIKT
For the molecule B1, the Kd in the test with human YKL-40 WT was determined as 1180 nM; with YKL-40 A134 it was 0.516 nM; with YKL-40 A194, 20600 nM; with YKL-40 A93, 0.777 nM; with YKL-40 R301, 0.753 nM; in the test with YKL-40 A302 it was 0.673 nM. Moreover, the Kd in the test with YKL-40 A142 was found to be 0.79 nM; in the test with YKL-40 A135, 0.755 nM; with YKL-40 A108, 0.529 nM; with YKL-40 A145, 0.465 nM; with YKL-40 A283 it was 1.07 nM; with YKL-40 A141 it was 0.638 nM. The Kd in the test with YKL-40 A250 was 120 nM; with YKL-40 A42 it was 2540 nM; with YKL-40 A175, 0.684 nM; with YKL-40 A44 it was 0.439 nM; in the test with YKL-40 A287 it was 164 nM; with YKL-40 A249, 2480 nM. In addition, the Kd stood at 0.773 nM with YKL-40 A146; 0.655 nM with YKL-40 A172; 104 nM in the test with YKL-40 A256; 0.84 nM with YKL-40 A149; 7260 nM with YKL-40 A300; 52000 nM in the test with YKL-40 R284. Moreover, the Kd came out at 0.906 nM with YKL-40 A100; 0.472 nM with YKL-40 A286; 0.817 nM with YKL-40 A148; 0.699 nM in the test with YKL-40 A192; 33.9 nM in the test with YKL-40 A92; 4800 nM with YKL-40 A191. Further, the Kd with YKL-40 A289 was determined as 0.693 nM; with YKL-40 A107, 0.611 nM; in the test with YKL-40 A96, 0.558 nM; with YKL-40 A104, 0.423 nM; with YKL-40 A288 it was 0.649 nM.

B2: B3-hFc (antibody)
chain 1: MAEVQLLESGGGLVQPGGSLRLSCAASGFRDSDEDMGWVRQAPGKGLEWVSSISAPGGSTYYADSVKGRFTISRDNSKNTLYLQMNSLRAEDTAVYYCASHYNYGHWFDYWGQGTLVTVSSAA
chain 2: VECPPCPAPPVAGPSVFLFPPKPKDTLMISRTPEVTCVVVDVSHEDPEVQFNWYVDGMEVHNAKTKPREEQFNSTFRVVSVLTVVHQDWLNGKEYKCKVSNKGLPAPIEKTISKTKGQPREPQVYTLPPSREEMTKNQVSLTCLVKGFYPSDIAVEWESNGQPENNYKTTPPMLDSDGSFFLYSKLTVDKSRWQQGNVFSCSVMHEALHNHYTQKSLSLSPGK
Consider B2, for which the binding result with calmodulin was “no binding”.

Values taken from patent US20260317446 (published 2026).
